# Test results as given in patent US6387681.
# Test system: NheI restriction endonuclease (R.NheI) (Neisseria mucosa heidelbergensis)
# Assay: cleavage_in_vitro
# Conditions: cell extract of clones #1 and #9; AvaI-linearized pBR322 cleaved into 1196 and 3165 bp fragments
sequence,measurement,value
GCTAGC (double strand) [NheI site in AvaI-linearized pBR322],activity (units per gram wet cells),1e+07
